Two molecules from patent publication US20240309076A1 (REGENXBIO, published 2024) can be followed below.

This experiment addresses Tau and AD-associated Tau in brain tissue and brain extracts of patients with tauopathy (AD, PSP, PiD) (human, UniProt P10636-8 2-441, limits assumed, pathologically hyperphosphorylated and aggregated; the sites are not specified). In words: cell-based or functional assay.

Chain of Tau and AD-associated Tau in brain tissue and brain extracts of patients with tauopathy (AD, PSP, PiD) (P10636 other isoform, or with tags, fused parts or gaps limits assumed): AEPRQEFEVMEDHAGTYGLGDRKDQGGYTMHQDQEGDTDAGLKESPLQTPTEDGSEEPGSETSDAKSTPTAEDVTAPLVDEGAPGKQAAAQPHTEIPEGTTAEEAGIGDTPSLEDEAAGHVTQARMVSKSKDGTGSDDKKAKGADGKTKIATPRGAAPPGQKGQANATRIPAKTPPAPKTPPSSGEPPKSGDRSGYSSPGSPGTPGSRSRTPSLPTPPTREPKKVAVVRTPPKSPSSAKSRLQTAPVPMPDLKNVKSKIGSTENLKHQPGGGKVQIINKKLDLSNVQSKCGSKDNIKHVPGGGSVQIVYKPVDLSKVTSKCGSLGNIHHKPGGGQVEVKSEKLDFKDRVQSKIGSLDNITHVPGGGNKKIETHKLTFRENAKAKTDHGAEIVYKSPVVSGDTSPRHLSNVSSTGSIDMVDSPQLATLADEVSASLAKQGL

B1: NI-502.8H1 (antibody, V domains shown)
VH: EVQLVESGGGLVQPGGSLRLSCAASGFTFSIYTMSWVRQAPGKGLEWVSAILSDGSTYYADSVEGRFTISRDNSKTTLYLQMNSLTAEDTAVYYCTKRVEGSFRGWGQGTLVTVSS
VL: EIVMTQSPGTLSLSPGESATLSCRASQSVSTTYLAWYQQKPGQAPRLLIYGASSRATGIPDRFSGSGSGTDFTLTISRLEPEDFAVYYCQQYGGSRLITFGQGTRLEIK
As to B1, the “IC50 of Tau aggregation (integrated FRET density) in HEK293T Tau biosensor cells after immunodepletion of AD brain homogenate” value worked out at 7.1 µg/mL.

B2: NI-502.4P3 (antibody, V domains shown)
VH: EVQLVQSGAEVKKPGESLKISCKVSGYDFSKYWIGWVRQMPGKGLEWMGLIYPGDSDTRYSPSLEGQVSISADKSISAAYLQFSSLKASDSAMYYCVRKGYSAYLGGWFDPWGQGTLVTVSS
VL: DIQLTQSPDSLAASLGERVTINCRSSQNIFYNSNNKNFLAWYQQKAGQSPKLLIYWASTRESGVPDRFSGSGSGTDFTLTISGLQAGDVAVYFCQQYFTDAPTFGGGTKVEIK
With B2, the “IC50 of Tau aggregation (integrated FRET density) in HEK293T Tau biosensor cells after immunodepletion of AD brain homogenate” value came out at 6.5 µg/mL.
